Data reported in patent US20020039776.

B1: GST-CLR4(127-490) (protein)
chain: KQSTALTTNDTSIILDDSLHTNSKKLGKTRNEVKEESQKRELVSNSIKEATSPKTSSILTKPRNPSKLDSYTHLSFYEKRELFRKKLREIEGPEVTLVNEVDDEPCPSLDFQFISQYRLTQGVIPPDPNFQSGCNCSSLGGCDLNNPSRCECLDDLDEPTHFAYDAQGRVRADTGAVIYECNSFCSCSMECPNRVVQRGRTLPLEIFKTKEKGWGVRSLRFAPAGTFITCYLGEVITSAEAAKRDKNYDDDGITYLFDLDMFDDASEYTVDAQNYGDVSRFFNHSCSPNIAIYSAVRNHGFRTIYDLAFFAIKDIQPLEELTFDYAGAKDFSPVQSQKSQQNRISKLRRQCKCGSANCRGWLFG
B2: GST-SUV39H1(82-412) (protein)
chain: CVRILKQFHKDLERELLRRHHRSKTPRHLDPSLANYLVQKAKQRRALRRWEQELNAKRSHLGRITVENEVDLDGPPRAFVYINEYRVGEGITLNQVAVGCECQDCLWAPTGGCCPGASLHKFAYNDQGQVRLRAGLPIYECNSRCRCGYDCPNRVVQKGIRYDLCIFRTDDGRGWGVRTLEKIRKNSFVMEYVGEIITSEEAERRGQIYDRQGATYLFDLDYVEDVYTVDAAYYGNISHFVNHSCDPNLQVYNVFIDNLDERLPRIAFFATRTIRAGEELTFDYNMQVDPVDMESTRMDSNFGLAGLPGSPKKRVRIECKCGTESCRKYLF

Target: free histones (mixture of H1, H3, H2B, H2A and H4; Boehringer Mannheim)

| Protein | HMTase activity |
| --- | --- |
| B1 | The SU(VAR)3-9 family members assayed, SUV39H1, Suv39h2 and CLR4, displayed HMTase activity. |
| B2 | The SU(VAR)3-9 family members assayed, SUV39H1, Suv39h2 and CLR4, displayed HMTase activity. |
